Measurements published in patent US20210040181A1 (Bristol-Myers Squibb, published 2021).
Residue numbers refer to the chain shown, from its start.

B1: 679B10 (designed binder)
chain: VSDVPRDLEVVAATPTSLLISWRLTAPLGRYYRITYGETGGNSPVQEFTVPDIPFTATISGLKPGVDYTITVYAVTLSDSAHGGLRDVPISINYRT
notes: 10Fn3-based clone expressed in E. coli as His6 tagged protein; not shown: His6 tag
B2: 679A05 (designed binder)
chain: VSDVPRDLEVVAATPTSLLISWARYAECGRYYRITYGETGGNSPVQEFTVPDVPWTATISGLKPGVDYTITVYAVTLGKPPLPGWVSGLDPISINYRT
notes: as for B1
B3: 867B09 (designed binder)
chain: VSDVPRDLEVVAATPTSLLISWYLSHSYMRYYRITYGETGGNSPVQEFTVPVIHYTATISGLKPGVDYTITVYAVTSDKISVTVSGPISINYRT
notes: as for B1
B4: 679B01 (designed binder)
chain: VSDVPRDLEVVAATPTSLLISWLLLGAPCRYYRITYGETGGNSPVQEFTVPWMGLTATISGLKPGVDYTITVYAVTSERAPCVKVWRCPISINYRT
notes: as for B1
B5: 679F03 (designed binder)
chain: VSDVPRDLEVVAATPTSLLISWYHYYSGSQRYYRITYGETGGNSPVQEFTVPHEVYTATISGLKPGVDYTITVYAVTDYAYKEYEEYPISINYRT
notes: as for B1
B6: 679G06 (designed binder)
chain: VSDVPRDLEVVAATPTSLLISWYSDYYDNRYYRITYGETGGNSPVQEFTVPRYMMTATISGLKPGVDYTITVYAVTYSYHDPNPMMPISINYRT
notes: as for B1
B7: 867A01 (designed binder)
chain: VSDVPRDLEVVAATPTSLLISWQQQHTNYRYYRITYGETGGNSPVQEFTVPGRASTATISGLKPGVDYTITVYAVTEHPYYGDPPISINYRT
notes: as for B1
B8: 867F10 (designed binder)
chain: VSDVPRDLEVVAATPTSLLISWHNTYKDYRYYRITYGETGGNSPVQEFTVPHMAYNTATISGLKPGVDYTITVYAVTVTMQALLYSIPISINYRT
notes: as for B1
B9: 679A01 (designed binder)
chain: VSDVPRDLEVVAATPTSLLISWARYAGSDRYYRITYGETGGNSPVQEFTVPDVPFTATISGLKPGVDYTITVYAVTMGHAPTVDIHWTPSPISINYRT
notes: as for B1
B10: 867E02 (designed binder)
chain: VSDVPRDLEVVAATPTSLLISWIRRAKPGRYYRITYGETGGNSPVQEFTVPDVPWTATISGLKPGVDYTITVYAVTLDGVRRVGYLDHPISINYRT
notes: as for B1
B11: 867B10 (designed binder)
chain: VSDVPRDLEVVAATPTSLLISWKSVYVDYRYYRITYGETGGNSPVQEFTVPHSNLTATISGLKPGVDYTITVYAVTVYESYVANDSPISINYRT
notes: as for B1
B12: 679F09 (designed binder)
chain: VSDVPRDLEVVAATPTSLLISWQVPRPMYQRYYRITYGETGGNSPVQEFTVPGGVRTATISGLKPGVDYTITVYAVTDYMHSEYRQYPISINYRT
notes: 10Fn3-based clone expressed in E. coli as His6 tagged protein; also called clone 679F09; not shown: His6 tag
B13: 867E05 (designed binder)
chain: VSDVPRDLEVVAATPTSLLISWNRHAMASRYYRITYGETGGNSPVQEFTVPDVPFTATISGLKPGVDYTITVYAVTMSDKAMDMRTPSIGPISINYRT
notes: as for B1
B14: 679B09 (designed binder)
chain: VSDVPRDLEVVAATPTSLLISWMRWYAPRRYYRITYGETGGNSPVQEFTVPFWQGTATISGLKPGVDYTITVYAVTRGQSGLGMPISINYRT
notes: as for B1
B15: 867A03 (designed binder)
chain: VSDVPRDLEVVAATPTSLLISWTYRHYPERYYRITYGETGGNSPVQEFTVPDPDSTATISGLKPGVDYTITVYAVTYNHSSTPISINYRT
notes: as for B1
B16: 867A05 (designed binder)
chain: B15 chain with T23Y, H26K, E29G, P53E, D54H, S55T, N78D, H79S, S80P, T82Q
notes: as for B1
B17: 867C04 (designed binder)
chain: VSDVPRDLEVVAATPTSLLISWESKYVNYRYYRITYGETGGNSPVQEFTVPHLMTATISGLKPGVDYTITVYAVTVGGDHMYSSLPISINYRT
notes: as for B1
B18: 867H08 (designed binder)
chain: VSDVPRDLEVVAATPTSLLISWLRVPAYDRYYRITYGETGGNSPVQEFTVPDVPWTATISGLKPGVDYTITVYAVTLDESDMRVGVPISINYRT
notes: as for B1
B19: 679A10 (designed binder)
chain: VSDVPRDLEVVAATPTSLLISWDRMLSFLRYYRITYGETGGNSPVQEFTVPLIYPTATISGLKPGVDYTITVYAVTVQLLDQCLRIHGPISINYRT
notes: as for B1
B20: 679C10 (designed binder)
chain: VSDVPRDLEVVAATPTSLLISWSRYAPGGRYYRITYGETGGNSPVQEFTVPDVPWTATISGLKPGVDYTITVYAVTLSNYEYLARNPISINYRT
notes: as for B1
B21: 867C07 (designed binder)
chain: VSDVPRDLEVVAATPTSLLISWHSNYVDYRYYRITYGETGGNSPVQEFTVPHISDITATISGLKPGVDYTITVYAVTVEDMVRESYPPISINYRT
notes: as for B1
B22: 867B08 (designed binder)
chain: VSDVPRDLEVVAATPTSLLISWSGSYKSYRYYRITYGETGGNSPVQEFTVPHYDHATATISGLKPGVDYTITVYAVTVDYTAVQVSYPISINYRT
notes: as for B1

How the values were obtained:
EGFR 525-Fc (human) = EGFR 525-Fc (human) (UniProt P00533); test: direct binding ELISA, single point; clone captured by anti-His, 50 nM receptor-Fc, anti-human Fc HRP
[1] = biological target: EGFR-Fc (R&D Systems), ectodomain of human EGFR as a Fc fusion (human) (UniProt P00533); test: as above
[2] = biological target: T1, EGFR-Fc (R&D Systems), ectodomain of human EGFR as a Fc fusion (human, UniProt P00533 25-645); test: as above
T1 construct: extracellular domain; Bought from R&D Systems; also called EGFR-FL-Fc; full length EGFR Fc fusion protein; not shown: Fc of the purchased fusion
Procedure: Proteins encoded by independent clones were analyzed for binding to the full length ectodomain of EGFR as well as a truncated version containing the first 525 amino acids (EGFR 525) of the EGFR ectodomain in single point direct binding assays. Anti-His antibodies were used to capture protein clones in an oriented fashion followed by incubation with full length EGFR or EGFR 525 Fc fusion proteins. Bound receptor-Fcs were detected via anti-human Fc HRP conjugate with a chromogenic readout (i.e. A450). […] The SGE control is the ¹⁰FN3 domain as shown in SEQ ID NO: 1 with the integrin binding domain (RGD) substituted with amino acids SGE.
The protein populations resulting from the above selections are expressed in E. coli as His6 tagged proteins. The direct binding ELISA relies on the oriented capture of His6 tagged clones onto anti-His monoclonal antibody plates (EMD Biosciences, San Diego, Calif.) blocked with casein block buffer (Pierce, Rockford, Ill.) for 1-2 hrs. Typically a 1:50 dilution of HTPP material (0.2-2 ug) is captured for 1 hr, followed by incubation with 50 nM of the EGFR-Fc targets. Bound EGFR-Fcs are detected by incubation with anti-human HRP. Bound HRP conjugate is detected using the colorimetric substrate TMB (BD Biosciences, San Jose, Calif.) following the manufacturer's instructions.

[3] = biological target: T2, EGFR on the surface of human A431 cells (human, UniProt P00533 25-1210); test: competition with 10 nM Eu-EGF on A431 cells, time resolved fluorescence; Midscale preparation
T2 construct: whole, on cells; also called HER-1; EGF receptor on cells
Procedure: (§1) Human epithelial carcinoma cells, clone A431, which express large numbers of EGFRs on the cell surface, are plated into 96 well tissue culture plates and allowed to adhere for 48 hours. The cells are washed with serum free media and dilutions of the selected clones are incubated with the cells for 15 minutes, 37° C. in a humidified incubator in 5% CO₂. This incubation allows binding of the clone to the EGFR on the cell surface.

[4] = biological target: T2, EGFR on the surface of human A431 cells; test: cell-based competitive ligand binding assay on A431 cells, competitor Eu-EGF, time-resolved fluorescence (RFUs); parameter C of the four-parameter fit y = ((A - D)/(1 + (x/C)^B)) + D, x axis in nM; the legend calls C the IC50 but prints 258.258
Procedure: as §1

[5] = biological target: T2, EGFR on the surface of human A431 cells; test: cell-based or functional assay
[6] = biological target: T2, EGFR on the surface of human A431 cells; test: competition with 10 nM Eu-EGF on A431 cells, time resolved fluorescence; protein diluted in PBS buffer
Procedure: as §1

[7] = biological target: T2, EGFR on the surface of human A431 cells; test: competition with 10 nM Eu-EGF on A431 cells, time resolved fluorescence; protein diluted in Tris buffer
Procedure: as §1

| Molecule | A450 (EGFR 525-Fc (human)) | A450 [2] | further results |
| --- | --- | --- | --- |
| SGE control (10FN3 domain of SEQ ID NO: 1 with RGD substituted with SGE) (designed binder) | 0.139 A450 | – | A450 [1]: 0.143 A450 |
| B1 | 1.74 A450 | 1.38 A450 | – |
| B2 | 1.72 A450 | 1.43 A450 | – |
| B3 | 2.41 A450 | 2.77 A450 | – |
| B4 | 0.539 A450 | 0.213 A450 | – |
| B5 | 2.45 A450 | 2.37 A450 | IC50 [3]: 26.8 nM |
| B6 | 0.128 A450 | 2.1 A450 | – |
| B7 | 0.137 A450 | 1.4 A450 | IC50 [4]: 258 nM |
| B8 | 2.32 A450 | 2.78 A450 | – |
| B9 | 1.53 A450 | 1.57 A450 | – |
| B10 | 1.43 A450 | 1.42 A450 | – |
| B11 | 2.55 A450 | 2.96 A450 | – |
| B12 | 2.47 A450 | 2.42 A450 | EGF-stimulated EGFR phosphorylation on tyrosine 1068, A431 cells (In Cell Western), IC50 [5]: 2800 nM; EGF-stimulated EGFR phosphorylation on tyrosine 1068, DiFi cells (ELISA), IC50 [5]: 1490 nM; EGF-stimulated EGFR phosphorylation on tyrosine 1068, FaDu cells (In Cell Western), IC50 [5]: 1300 nM; EGF-stimulated ERK phosphorylation, A431 cells (In Cell Western), IC50 [5]: 3100 nM; EGF-stimulated ERK phosphorylation, DiFi cells (ELISA), IC50 [5]: > 4000 nM; EGF-stimulated ERK phosphorylation, FaDu cells (In Cell Western), IC50 [5]: 2000 nM; EGF-stimulated total EGFR phosphorylation, A431 cells (In Cell Western), IC50 [5]: 2400 nM; EGF-stimulated total EGFR phosphorylation, DiFi cells (ELISA), IC50 [5]: 5300 nM; IC50 [3]: 14.7 nM; IC50 [6]: 13 nM; IC50 [7]: 20 nM |
| B13 | 1.68 A450 | 1.72 A450 | – |
| B14 | 0.375 A450 | 0.455 A450 | – |
| B15 | 1.85 A450 | 2.3 A450 | – |
| B16 | 1.61 A450 | 1.87 A450 | – |
| B17 | 1.57 A450 | 1.95 A450 | – |
| B18 | 1.79 A450 | 1.9 A450 | – |
| B19 | 0.925 A450 | 0.787 A450 | – |
| B20 | 0.803 A450 | 0.467 A450 | – |
| B21 | 2.18 A450 | 2.43 A450 | – |
| B22 | 2.49 A450 | 2.61 A450 | – |
